From US20160011207A1, “DIAGNOSIS AND THERAPY OF CHRONIC INFLAMMATION-INDUCED DISORDERS” (VIRGINIA COMMONWEALTH UNIVERSITY, priority 2012, published 2016)
Entries after “also recorded” stand apart in the source; their conditions may differ.

How the values were obtained:
[1] = tested on: primary adipocytes, myoblasts and hepatocytes; test: Insulin sensitizing effects of IGFBP-3 in cells treated with proteases and inhibitors (Example 7); format: cell-based; conditions: Example 7, written in present tense
Description: The levels of the three NSPs and IGFBP-3 protease activity in sera from lean and obese mice fed with CD and HFD, respectively, for 16 weeks are investigated using Western immunoblotting, ELISAs and an IGFBP-3 protease activity assay. Further, the impact of PR3-induced proteolysis and inhibitors (Prolastin and a small peptide inhibitor) on insulin sensitizing effects of IGFBP-3 in primary adipocytes (Invitrogen/Life Technologies, Grand Islands N.Y.), myoblasts and hepatocytes (Eton Bioscience, Research Triangle Park, N.C.) is investigated. The cells are treated with IGFBP-3 or PR3 proteolyzed IGFBP-3 fragments with and without insulin, and analyzed for glucose uptake, levels of insulin receptor substrates (IRSs), glucose transporters (GLUTs), adiponectin (in adipocytes) and intracellular glycogen content (in hepatocytes) using a glucose uptake assay, qRT-PCR, Western immunoblotting and a glycogen assay kit. Further experiments are performed to treat cells with IGFBP-3 and PR3 in the presence and absence of Prolastin or the small peptide inhibitor(s) described herein. The inhibitory effects of NE and CG on IGFBP-3's insulin-sensitizing effects are also determined using similar laboratory methods. The involvement of IGFBP-3R on the insulin signaling pathway is also investigated by manipulating endogenous IGFBP-3R expression using IGFBP-3R siRNAs. […]

[2] = biological target: T1, PR3 (Homo sapiens, UniProt P24158); test: In vitro IGFBP-3 proteolysis by PR3, Western immunoblotting; format: biochemical; conditions: for inhibition of PR3-induced IGFBP-3 proteolysis (Western immunoblot, in words): FIG. 8 and 9A
T1 sequence (P24158 28-248): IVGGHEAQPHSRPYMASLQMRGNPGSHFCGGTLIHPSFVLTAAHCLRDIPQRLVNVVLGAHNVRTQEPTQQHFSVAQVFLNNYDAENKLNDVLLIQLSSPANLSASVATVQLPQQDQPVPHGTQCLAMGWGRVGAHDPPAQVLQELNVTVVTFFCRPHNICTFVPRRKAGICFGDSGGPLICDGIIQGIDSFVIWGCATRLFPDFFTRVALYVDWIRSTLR
Protocol: FIG. 4A-B. A, increased serum PR3 and IGFPR-3 proteolysis in high fat diet (HFD) mice. The increased IGFBP-3 proteolytic fragments and PR3 were detected in HFD compared with chow diet (CD) fed mice by Western immunoblotting using mouse IGFBP-3 or PR3 specific antibodies. […] IGFBP-3 proteolytic fragments were detected in recombinant IGFBP-3 (100 ng) and PR3 (500 ng) treated samples by Western immunoblotting.
FIG. 8. […] Recombinant IGFBP-3 (100 ng) was proteolyzed by treatment with […] PR3 for 60 min. at 37° C. (lane 2).
(§1) FIG. 9A-C. Inhibitory effect of the small peptide on NSP-induced IGFBP-3 proteolysis. […] Recombinant IGFBP-3 (100 ng) was proteolyzed by treatment with 100 nM PR3 for 60 min at 37° C. (lane 3). […] B. In vitro IGFBP-3 proteolysis by NE and CG. […] Recombinant IGFBP-3 (100 ng) was proteolyzed by treatment with NE (70 nM) and CG (200 nM) for 20 min. at 37° C. The treated samples were subject to Western immunoblotting using polyclonal IGFBP-3 antibodies. NE and CG proteolyze IGFBP-3 (lanes 2 and 7). […] C. The sequence of small inhibitory peptide (LIRCAML). Putative small inhibitory peptide binding site on PR3 ([…]) and NE ([…]), of which sequences are well conserved in both PR3 and NE.
Since it has been reported that PR3 appears to contribute to progression of chronic inflammatory diseases, we characterized PR3 as a specific IGFBP-3 protease in obese condition. The experiments were carried out using recombinant PR3 and IGFBP-3, and Western immunoblotting with IGFBP-3 specific antibody.
This peptide and/or suitable variants thereof can thus be used to treat individuals with chronic inflammation (obesity)-induced insulin resistance.

[3] = biological target: T2, NE (Homo sapiens, UniProt P08246); test: In vitro IGFBP-3 proteolysis by NE, Western immunoblotting; format: biochemical; conditions: recombinant IGFBP-3 100 ng; NE 70 nM, 20 min at 37° C.; FIG. 9B
T2 sequence (P08246 30-267): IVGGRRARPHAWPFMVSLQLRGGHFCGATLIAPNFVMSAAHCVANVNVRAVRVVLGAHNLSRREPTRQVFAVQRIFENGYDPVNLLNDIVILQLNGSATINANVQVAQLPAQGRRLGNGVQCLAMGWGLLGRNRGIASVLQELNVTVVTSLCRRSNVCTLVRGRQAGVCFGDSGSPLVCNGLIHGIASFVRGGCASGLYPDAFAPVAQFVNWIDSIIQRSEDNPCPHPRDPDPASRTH
Protocol: Inhibitory effect of the small peptide on NSP-induced IGFBP-3 proteolysis. […] B. In vitro IGFBP-3 proteolysis by NE and CG. […] Recombinant IGFBP-3 (100 ng) was proteolyzed by treatment with NE (70 nM) and CG (200 nM) for 20 min. at 37° C. The treated samples were subject to Western immunoblotting using polyclonal IGFBP-3 antibodies.

[4] = biological target: T3, CG (Homo sapiens, UniProt P08311); test: In vitro IGFBP-3 proteolysis by CG, Western immunoblotting; format: biochemical; conditions: recombinant IGFBP-3 100 ng; CG 200 nM, 20 min at 37° C.; FIG. 9B
T3 sequence (P08311 21-244): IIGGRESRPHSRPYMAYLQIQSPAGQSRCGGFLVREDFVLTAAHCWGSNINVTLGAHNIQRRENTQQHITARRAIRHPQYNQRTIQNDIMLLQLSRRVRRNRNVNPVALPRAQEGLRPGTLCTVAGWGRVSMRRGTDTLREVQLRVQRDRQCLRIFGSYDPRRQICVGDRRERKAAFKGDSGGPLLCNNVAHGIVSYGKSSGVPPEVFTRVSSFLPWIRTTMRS
Protocol: as §1

[5] = tested on: NSPs (PR3/NE/CG); test: In vitro IGFBP-3 protease assay with NSPs and inhibitors (Example 5); format: biochemical; conditions: recombinant IGFBP-3, NSPs (PR3/NE/CG); example written in present tense
Description: Since PR3, NE and CG appear to be involved in inflammation and metabolic disorders, all three proteases are characterized with respect to IGFBP-3 proteolysis in vitro.

[6] = tested on: HFD C57BL/6 mice; test: Insulin tolerance test (ITT) in HFD-induced obese mice (Example 6); format: in vivo; conditions: 60 mg/kg AAT for 7 weeks, 0.75 unit/kg insulin i.p., 15, 60, 90 and 120 min after insulin, p<0.05
Protocol: FIG. 10. Insulin tolerance test (ITT).
Assessment of body weight, fed and fasting glucose, intraperitoneal glucose tolerance test (IPGTT) and insulin tolerance test (ITT) were performed at 8, 15 weeks of HFD.
Weekly assessment of body weight was performed. IPGTT and ITT were analyzed at 8, 15 weeks of HFD.
Description of murine models: Six week old male C57BL6/J BomTac mice were obtained from Taconic, Hudson, N.Y., and kept at 22° C. on a 12:12-h light-dark cycle, with food and water ad libitum. All mice were placed on a normal rodent diet (ND) D12450B for 1 week and then divided into two groups and fed with ND and high fat diet (HFD) D12492 for 16 weeks. ND (D12450B, calories provided by fat 10%, protein 20%, Carbohydrate 70%) and HFD (D12492, calories provided by fat 60%, protein 20%, Carbohydrate 20%) were from Research Diets, new Brunswick, NJ52.
Insulin tolerance test (ITT): After a 7-day recovery period, an ITT was performed on the same mice. […]
Data Analysis: 1) Mice with HFD feeding and with/without NSP inhibitor treatments awere studied with assessment of body weight, fed and fasting glucose, IPGTT and ITT. Statistical analysis: Differences between groups are determined by ANOVA followed by Turkey post hoc tests or by Student t Test as appropriate. Significance is considered as p<0.05.

[7] = tested on: NSPs (PR3, NE, and CG); test: NSP-induced IGFBP-3 proteolysis with inhibitors (Example 10); format: biochemical; conditions: Example 10, written in present tense
Description: The biological impact of NSPs (PR3, NE, and CG) on IGFBP-3 proteolysis and the antitumor actions of IGFBP-3/IGFBP-3R signaling is investigated, e.g. to characterize specific mechanisms by which NSPs modulate the biologic impact of IGFBP-3/IGFBP-3R on cell proliferation, apoptosis in CRC. Accordingly, the impact of NSPs on the antitumor and anti-inflammatory functions of IGFBP-3 in a variety of colon cancer cells (HT-29, Caco-2, HCT116 and LoVo) is investigated using recombinant IGFBP-3 (intact or NSP-proteolyzed fragments), NSPs and their inhibitors. The involvement of IGFBP-3R on IGFBP-3's effects is tested by manipulating endogenous IGFBP-3R expression using additional lentiviral-IGFBP-3-GFP, IGFBP-3R siRNAs, Adeno-IGFBP-3R, NSPs and protease inhibitors in the same cell systems.
Human and mouse specific IGFBP-3 antibodies (Abs)20, IGFBP-3R Abs20, IGFBP-3 protease assay, and adeno-, retro- and lenti-viral plasmids transfused with IGFBP-3, IGFBP-3R or their small hairpin RNAs (shRNAs) are utilized in these investigations.
The differential impact of intact IGFBP-3 and IGFBP-3 fragments on induction of apoptosis, cell proliferation in CRC cells is quantified using a Cell death assay, WST assay and qRT-PCR and immunoblotting.

[8] = tested on: AOM-DSS-treated mice; test: CAC mouse model, AOM-DSS-treated mice (Example 10); format: in vivo; conditions: AAT 60 mg/kg once weekly, Example 10, written in present tense
Protocol: Studies are also carried out to determine whether administration of the NSP inhibitor (Aralast) inhibits progression of CRC in a CAC mouse model.
First, serum NSPs, IGFBP-3 and IGFBP-3 proteolysis are determined during CRC development in AOM-DSS-treated mice with/without Aralast administration (60 mg/kg body weight once weekly) (6 mice/group). Serum NSPs (PR3,NE,CG), IGFBP-3, and proteolyzed IGFBP-3 and cytokines ([…], IL-6, IL-1β) are analyzed biweekly using Western immunoblotting, IGFBP-3 protease activity assays and mouse specific ELISAs (ELISA kits for PR3 from USCN life science; NE from Biotang USA; CG from CusaBio; TNF-α from Thermo Scientific; and IGFBP-3 from Sigma).
After sacrificing, mice colons are removed and flushed with phosphate-buffered saline (PBS) for macroscopic inspection. Tumor counts are performed in a blinded fashion. Tumor volume (V) is calculated […] by measuring length (L) and width (W) of the tumor with calipers and using the following formula: V={W×L×[(W+L)/2]}×0.52. Using paraformaldehyde fixed or fresh frozen tissue the proteins/genes involved in cell proliferation and inflammatory signaling are examined using Ki67 staining, apoptosis detection kit (Roche Dignostics GmbH) as well as immunoblotting and qRT-PCR for TNF-α, IL-6, IL-1β, NF-κB, IκBκ, IGFBP-3 and IGFBP-3R. […]

[9] = recombinant IGFBP-3 100 ng, 100 nM PR3, 60 min at 37° C.

Molecule | effect on protease-induced IGFBP-3 proteolysis and inhibition of IGFBP-3's normal metabolic function [1] | inhibition of IGFBP-3 proteolysis induced by 100 nM PR3 treatment ([2]; peptide at 0.5 μM, recombinant IGFBP-3 100 ng, 100 nM PR3, 60 min at 37° C.) | inhibitory effect on PR3 activity compared with AAT ([2]; peptide at 20 μM versus 100 nM AAT, 100 nM PR3) | inhibition of PR3-induced IGFBP-3 proteolysis (Western immunoblot, in words) [2, 9] | inhibition of IGFBP-3 proteolysis by NE (in words) [3] | inhibition of IGFBP-3 proteolysis by CG (in words) [4] | NSP-induced proteolysis of IGFBP-3 (Example 5, in words) [5] | inhibition of PR3-induced IGFBP-3 proteolysis (FIG. 4B, in words) ([2]; recombinant IGFBP-3 (100 ng) and PR3 (500 ng)) | blood glucose levels in ITT versus PBS control [6] | NSP-induced proteolysis of IGFBP-3 (Example 10, in words) [7] | tumor incidence and size compared with untreated mice [8]
CC(C)[C@@H]1C(=O)N(S(C)(=O)=O)[C@@H]2CCN(C(=O)/C=C/CN3CCCCC3)[C@H]21.Cl [GW311616A, reference compound] | reverse this effect | – | – | – | – | – | – | – | – | – | –
LIRCAML (Synthetic peptide inhibitor) | reverse this effect | more than 50% | comparable to that of 100 nM AAT | potent inhibitory effect; also recorded: inhibited IGFBP-3 proteolysis in a dose-dependent manner (0.5-20 μM); also recorded: inhibited IGFBP-3 proteolysis in a does-dependent manner (0.05-1 μM) | inhibited IGFBP-3 proteolysis by NE or CG in a dose-dependent manner (0.5-1 μM) | inhibited IGFBP-3 proteolysis by NE or CG in a dose-dependent manner (0.5-1 μM) | blocked | – | – | – | –
α-1-antitrypsin [AAT] | – | – | – | inhibited | – | inhibited | blocked | completely inhibited; also recorded: Few IGFBP-3 proteolytic fragments were detected | significantly lower | blocked | decreases tumor incidence and size
